The values that follow come from patent CN105367658A (ZHU JIN, dated 2016).

This assay deals with T1, 重组人唾液酸结合免疫球蛋白样凝集素-9蛋白 (human, UniProt Q9Y336 18-348, limits assumed).
T1 construct: Purified recombinant protein coated on ELISA plates and (as 'antigen') coupled to the CM5 chip; also called recombinant human Siglec-9; Siglec9蛋白
Briefly: SPR (Biacore X100), antigen coupled to CM5 chip, analyte 0-80 nM.

T1 sequence (Q9Y336 18-348 limits assumed): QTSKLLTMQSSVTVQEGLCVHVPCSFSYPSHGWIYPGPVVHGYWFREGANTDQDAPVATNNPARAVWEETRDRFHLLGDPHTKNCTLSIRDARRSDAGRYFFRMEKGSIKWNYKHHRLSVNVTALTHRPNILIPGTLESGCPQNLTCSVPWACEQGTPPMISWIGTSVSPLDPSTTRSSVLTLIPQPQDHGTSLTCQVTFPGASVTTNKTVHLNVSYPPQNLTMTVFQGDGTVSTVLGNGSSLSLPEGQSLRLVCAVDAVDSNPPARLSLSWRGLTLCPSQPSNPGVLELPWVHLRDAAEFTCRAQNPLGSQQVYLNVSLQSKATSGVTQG

B1: 人源抗唾液酸结合免疫球蛋白样凝集素-9抗体IgG (antibody, V domains shown)
VH: EVQLVESGAEVKKPGASVKVSCKASGYIFTGYYMHWVRQAPGQGLEWMGWINPKSGGTNYAQKFQGRVTMTRDTSISTAYMELSRLRSDDTAVYYCVRDLGATGGDYWGQGTLVTVSS
VL: ELVLTQPPSVSVSPGQTARVTCSGDALPKKYAYWYQQKSGQAPILVIYGDNKRPSGIPERFSGSSSGTMATLTISGAQVEDEADYYCYSIDRSGNRVFGGGTRLTVLQ
notes: also called PA21抗体; 抗Siglec-9抗体
For orientation: Kd means a measure of binding affinity in units of concentration. Read a high Kd as a looser complex. In the case of B1, the equilibrium dissociation constant (Kd) is 738 pM.
